In US20260217795A1 (NANJING GENSCRIPT BIOTECH, published 2026):

T1: AAV8 virus-like particle (VLP) (adeno-associated virus 8)
T1 construct: VLP self-assembled from VP1, VP2 and VP3 expressed in 293T cells; coated on ELISA plates; also called VLP of AAV8
T1 VP1: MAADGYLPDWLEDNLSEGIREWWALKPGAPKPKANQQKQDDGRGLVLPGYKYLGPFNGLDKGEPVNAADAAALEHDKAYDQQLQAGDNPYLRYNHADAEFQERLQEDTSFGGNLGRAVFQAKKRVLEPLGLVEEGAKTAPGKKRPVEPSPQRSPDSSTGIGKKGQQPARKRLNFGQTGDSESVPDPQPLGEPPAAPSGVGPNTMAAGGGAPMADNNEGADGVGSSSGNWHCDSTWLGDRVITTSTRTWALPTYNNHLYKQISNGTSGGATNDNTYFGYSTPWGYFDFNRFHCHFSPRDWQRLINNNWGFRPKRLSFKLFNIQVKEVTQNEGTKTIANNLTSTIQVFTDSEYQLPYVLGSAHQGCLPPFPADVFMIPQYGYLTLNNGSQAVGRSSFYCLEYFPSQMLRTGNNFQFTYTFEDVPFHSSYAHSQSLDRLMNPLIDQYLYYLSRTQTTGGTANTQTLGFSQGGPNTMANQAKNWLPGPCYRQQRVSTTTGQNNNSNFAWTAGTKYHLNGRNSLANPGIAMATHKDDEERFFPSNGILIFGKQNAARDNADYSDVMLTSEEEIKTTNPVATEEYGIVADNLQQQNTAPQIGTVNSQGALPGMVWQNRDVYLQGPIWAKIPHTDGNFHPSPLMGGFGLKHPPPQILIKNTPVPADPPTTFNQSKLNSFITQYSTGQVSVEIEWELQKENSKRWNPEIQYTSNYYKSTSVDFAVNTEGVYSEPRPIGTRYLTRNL

T2: recombinant rh.1-type AAV virus-like particles (AAVrh.1 VLP) (adeno-associated virus rh.1 (isolated …))
T2 construct: The immunogen; VLP self-assembled from VP1, VP2 and VP3 expressed in 293T cells; coated on ELISA plates; also called rh.1-serotype AAV
T2 chain 1: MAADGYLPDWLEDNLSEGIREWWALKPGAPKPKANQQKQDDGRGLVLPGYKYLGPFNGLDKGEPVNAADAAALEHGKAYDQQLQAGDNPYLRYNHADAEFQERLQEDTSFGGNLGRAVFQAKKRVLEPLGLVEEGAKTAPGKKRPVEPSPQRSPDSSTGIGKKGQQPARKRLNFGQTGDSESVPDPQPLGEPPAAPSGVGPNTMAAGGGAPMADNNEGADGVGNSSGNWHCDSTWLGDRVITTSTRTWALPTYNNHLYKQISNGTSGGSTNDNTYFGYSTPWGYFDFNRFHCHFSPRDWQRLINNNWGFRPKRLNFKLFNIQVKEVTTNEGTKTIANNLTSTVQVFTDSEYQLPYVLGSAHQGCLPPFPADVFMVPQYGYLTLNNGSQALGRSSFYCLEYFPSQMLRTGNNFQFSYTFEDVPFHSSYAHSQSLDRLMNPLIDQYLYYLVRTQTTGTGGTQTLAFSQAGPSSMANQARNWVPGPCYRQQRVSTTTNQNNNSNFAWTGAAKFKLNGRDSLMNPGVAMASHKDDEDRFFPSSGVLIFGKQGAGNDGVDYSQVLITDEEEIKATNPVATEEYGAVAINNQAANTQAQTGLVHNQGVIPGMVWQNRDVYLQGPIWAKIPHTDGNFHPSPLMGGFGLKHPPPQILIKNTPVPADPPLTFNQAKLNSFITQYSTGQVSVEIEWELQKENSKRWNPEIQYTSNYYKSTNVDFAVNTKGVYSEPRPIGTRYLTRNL
T2 chain 2: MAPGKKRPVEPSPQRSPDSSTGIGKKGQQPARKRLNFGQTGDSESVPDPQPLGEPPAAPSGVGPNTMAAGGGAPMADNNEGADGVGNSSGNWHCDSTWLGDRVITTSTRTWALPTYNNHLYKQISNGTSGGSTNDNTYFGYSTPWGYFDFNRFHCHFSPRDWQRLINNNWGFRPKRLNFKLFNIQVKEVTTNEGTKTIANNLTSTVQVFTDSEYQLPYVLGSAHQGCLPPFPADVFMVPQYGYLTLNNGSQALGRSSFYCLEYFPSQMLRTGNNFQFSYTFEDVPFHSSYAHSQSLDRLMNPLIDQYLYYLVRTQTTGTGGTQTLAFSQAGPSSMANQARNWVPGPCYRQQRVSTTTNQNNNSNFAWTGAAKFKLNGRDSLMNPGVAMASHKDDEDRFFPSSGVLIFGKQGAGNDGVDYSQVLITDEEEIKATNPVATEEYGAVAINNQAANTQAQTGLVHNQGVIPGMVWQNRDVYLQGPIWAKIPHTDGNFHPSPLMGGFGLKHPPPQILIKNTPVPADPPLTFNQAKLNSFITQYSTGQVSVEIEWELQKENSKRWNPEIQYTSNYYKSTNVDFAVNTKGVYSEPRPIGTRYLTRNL
T2 chain 3: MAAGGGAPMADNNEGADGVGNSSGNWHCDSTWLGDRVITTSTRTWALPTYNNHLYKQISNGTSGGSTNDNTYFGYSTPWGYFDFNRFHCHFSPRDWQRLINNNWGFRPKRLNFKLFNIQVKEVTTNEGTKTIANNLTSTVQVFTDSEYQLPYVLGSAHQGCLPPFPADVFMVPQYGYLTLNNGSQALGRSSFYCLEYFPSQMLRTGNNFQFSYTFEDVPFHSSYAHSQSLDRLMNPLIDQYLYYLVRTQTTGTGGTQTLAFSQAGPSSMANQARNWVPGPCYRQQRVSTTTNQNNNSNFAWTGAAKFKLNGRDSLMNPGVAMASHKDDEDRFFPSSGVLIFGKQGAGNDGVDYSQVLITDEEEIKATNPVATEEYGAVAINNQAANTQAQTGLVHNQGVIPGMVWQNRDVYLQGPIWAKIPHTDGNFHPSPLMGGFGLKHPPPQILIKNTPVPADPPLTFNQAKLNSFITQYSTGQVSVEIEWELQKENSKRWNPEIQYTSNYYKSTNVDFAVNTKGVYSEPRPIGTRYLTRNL


Experiments:
Test in all cases: indirect ELISA, VLP coated at 1 ug/mL, antibody in 3-fold dilutions from 1 ug/mL
[1] = target: T3, AAV2 virus-like particle (VLP) (adeno-associated virus 2, UniProt P03135 1-735; P03135 1-598; P03135 1-533)
T3 construct: VLP self-assembled from VP1, VP2 and VP3 expressed in 293T cells; coated on ELISA plates; also called VLP of AAV2

[2] = target: T4, AAV5 virus-like particle (VLP) (adeno-associated virus 5)
T4 construct: VLP self-assembled from VP1, VP2 and VP3 expressed in 293T cells; coated on ELISA plates; also called VLP of AAV5

[3] = target: T5, AAV1 virus-like particle (VLP) (adeno-associated virus 1)
T5 construct: VLP self-assembled from VP1, VP2 and VP3 expressed in 293T cells; coated on ELISA plates; also called VLP of AAV1

[4] = target: T6, AAV9 virus-like particle (VLP) (adeno-associated virus 9)
T6 construct: VLP self-assembled from VP1, VP2 and VP3 expressed in 293T cells; coated on ELISA plates; also called VLP of AAV9

[5] = target: T1, AAV8 virus-like particle (VLP)
[6] = target: T7, AAVDJ virus-like particle (VLP) (adeno-associated virus DJ)
T7 construct: VLP self-assembled from VP1, VP2 and VP3 expressed in 293T cells; coated on ELISA plates; also called VLP of AAVDJ

[7] = target: T8, AAV6 virus-like particle (VLP) (adeno-associated virus 6)
T8 construct: VLP self-assembled from VP1, VP2 and VP3 expressed in 293T cells; coated on ELISA plates; also called VLP of AAV6

[8] = target: T2, recombinant rh.1-type AAV virus-like …

Binder	EC50 [1] [ng/mL]	EC50 [2] [ng/mL]	EC50 [3] [ng/mL]	EC50 [4] [ng/mL]	EC50 [5] [ng/mL]	EC50 [6] [ng/mL]	EC50 [7] [ng/mL]	EC50 [8] [ng/mL]
5G4-1 monoclonal antibody (antibody, V domains shown, Rabbit monoclonal antibody, made recombinantly in ExpiCHO-S cells, purified on protein A as IgG and detected with anti-rabbit IgG (Fc-specific); also called clone 5G4-1) VH: QSVKESEGGLFKPADTLSLTCTVSGFSLNNNDMSWVRQAPGNGLEYIGVMSSGGRLYAATWAKSRFTITRNTNLGTVTLKLTSLTAADTATYFCARGSPSSNRGIDIWGPGTLVTVSS VL: LTQTPSSVSAPVGGTVSINCQSDKSVYADNYLSWYQQTPGQPPKLLIYKASTLASGIPSRFKGSGSGTQFTLAISDVQCDDAATYYCAGGYSGNSDNGFGGGTEVVVR	0.94	1.16	1.03	0.64	1	1.12	0.64	0.51
24F7-1 monoclonal antibody (antibody, V domains shown, Rabbit monoclonal antibody, made recombinantly in ExpiCHO-S cells, purified on protein A as IgG and detected with anti-rabbit IgG (Fc-specific); also called clone 24F7-1) VH: QSLRESEGGLFKPADTLTLTCTVSGFSITAYNVGWVRQAPGKGLEWIGVIDISGATFYATWAKSRSTITRDTSLNTVTLKMTSLTAADTATYFCTRDPAFIWGPGTLVTVSS VL: DVVMTQTPASVEAAVGGTVTIKCQASQSVSSYLAWYQQKPGQPPKLLIYRASTLASGVPSRFKGSGSGTEFTLTISDLECADAATYYCQSYVYSNVLTYFNAFGGGTGVVVK	0.51	–	0.79	–	–	0.5	0.61	0.93
